# Test results published in PMC5701133.
# Target: JMJD6 full-length;BRD4 ET domain (human?;human, UniProt Q6NYC1;O60885 1-403;601-683, |)
# Test: thermal shift (DSF); with BRD4 ET; Tm […] C (+[…] C vs JMJD6/ssRNA); DSF: PBS pH 7.4, 1 uM JMJD6, 1 uM oligonucleotide, ET 1-100 uM, SYPRO Orange, 25-95 C at 1 C/min
binder,measurement,value
AUACGAUGCUUUACGGUGCUAUUUUGU (ssRNA) [ssRNA 27-nt],binding result,binds
